One block for each molecule: values may come before it.
Legend:
MCF-7 cells = assay: MCF-7 cell proliferation assay, IGF-1R agonist format; format: cell-based, human; details: MCF-7 and MiaPaCa cells (Tables 27-28)
Text: ; FIGS. 65A-65F), and were used for subsequent experiments.

[1] = biological target: T1, insulin receptor construct transfected into 32D cells (Homo sapiens, UniProt P06213); assay: IR autophosphorylation assay in IR transfected 32D cells (ELISA); format: cell-based; details: tested as MBP fusion peptides
T1 construct: expressed in transfected cells; host or cells: 32D cells (clone 969)
Method: The IR transfected 32D cells were seeded at […] in 96-well tissue culture plates and incubated overnight at 37° C. […] The culture media was decanted from the cell culture plates, and the diluted samples were added to the cells. The plates were incubated at 37° C. for 30 min. The stimulation medium was decanted from the plates, and cell lysis buffer (50 mM HEPES pH 7.2, 150 mM NaCl, 0.5% Triton X-100, 1 mM AEBSF, 10 KIU/ml aprotinin, 50 μM leupeptin, and 2 mM sodium orthovanadate) was added. The cells were lysed for 30 min.
In the ELISA portion of the assay, the cell lysates were added to the BSA-blocked anti-IR unit mAb (Upstate Biotechnology, Lake Placid, N.Y.) coated ELISA plates. After a 2 h incubation, the plates were washed 6 times with PBST and biotinylated anti-phosphotyrosine antibody (Upstate Biotechnology) is added. After another 2 h incubation, the plates were again washed 6 times. Streptavidin-Eu was then added, and the plates were incubated for 1 h. After washing the plates again, EG&G Wallac enhancement solution (100 mM acetone-potassium hydrogen pthalate, pH 3.2; 15 mM 2-naphtyltrifluoroacetate; 50 mM tri(n-octyl)-phosphine oxide; 0.1% Triton X-100) was added into each well, and the plates were placed onto a shaker for 20 min at RT.

IR = IR activity (agonist/antagonist) of MBP-peptide fusions, Table 10; test not named; details: MBP-peptide fusion proteins; one symbol per monomer unit
[2] = biological target: recombinant human insulin receptor (Homo sapiens, UniProt P06213); assay: Substrate phosphorylation assay (HIR kinase); format: biochemical; details: Table 8, HIR kinase assay
Method: Subsequently, a 2000-fold dilution of horseradish peroxidase (HRPO) conjugated phosphotyrosine antibody (Transduction Laboratories, Cat. No. E120H) in TBS was added. The plates were incubated for 30 min and washed 3 times with TBS. TMB (3,3′,5,5′-tetramethylbenzidine; Kem-En-Tec, Copenhagen, Denmark) was added. One substrate from Kem-En-Tec was added. After 10-15 min, the reaction was stopped by the addition of 1% acetic acid. The absorbance, representing the extent of substrate phosphorylation, was measured in a spectrophotometer at a wavelength of 450 nm.

[3] = biological target: T2, human insulin receptor (HIR) (Homo sapiens, UniProt P06213); assay: Insulin receptor binding, competition with 125I-labeled insulin (HIR Kd); details: insulin competition
T2 construct: made in house

[4] = system: free fat cells (adipocytes); assay: Adipocyte / free fat cell (FFC) assay, 3H glucose incorporation into lipid; details: for FFC Pot., agonist or antagonist: Table 8, letter before the potency
Method: Incorporation of ^3H into the lipid phase was determined by partitioning of lipid phase into a scintillant mixture, which excludes water-soluble ^3H products.

B1: D112-12-RP30-IGF: dimer peptide (Site 1-Site 1) (protein)
chain: ADYKDCWARPCGDAANFYDWFVQQASKKGGSGGSGGSGGSSFYSCLESLVNGGAERSDGQWEGCRAAAGAPVPYPDPLEPRPG
IGF-1R agonist activity, proliferation of MCF-7 and MiaPaCa cells, in words (MCF-7 cells): IGF-1R agonist activity

stimulation of autophosphorylation of IR [1]: active
B2: H2C-3aa-H2C: MBP fusion, H2C dimer (Site 1-Site 1) with 3 amino acid linker (protein)
chain: NNNNLGIEGRISEFIEGRAQPAMAFHENFYDWFVRQVSGGSFHENFYDWFVRQVSAAAGAPVPYPDPLEPRAA
modifications: left off: large carriers; small tags and cut ends

B3: 463 (protein)
chain: NNNNLGIEGRISEFIEGRAQPAMAFHENFYDWFVRQVSGGSFHENFYDWFVRQVSAAAGAPVPYPDPLEPRAA
modifications: MBP fusion
Act. (activity) (IR): A—A

stimulation of autophosphorylation of IR [1]: active
B4: H2C-9aa-H2C: MBP fusion, H2C dimer (Site 1-Site 1) with 9 amino acid linker (protein)
chain: NNNNLGIEGRISEFIEGRAQPAMAFHENFYDWFVRQVSGGSGGSGGSFHENFYDWFVRQVSAAAGAPVPYPDPLEPRAA
modifications: left off: large carriers; small tags and cut ends

Kinase Pot. (nM) [2]: Inactive
B5: MADYKDDDDKGSLDESFYDWFERQLGKKGGSGGSWLDQEWAWVQCEVYGRGCPSAAA(ETAG)PG (protein)
chain: MADYKDDDDKGSLDESFYDWFERQLGKKGGSGGSWLDQEWAWVQCEVYGRGCPSAAAGAPVPYPDPLEPRPG
modifications: E-tag
IR / HIR binding affinity compared with monomer or homodimer peptides, in words [3]: substantially higher (several orders of magnitude) affinity
activity in the free fat cell (FFC) assay / at IR, in words [4]: active as specific insulin receptor antagonists
FFC Pot., agonist or antagonist [4]: N
activity in the FFC assay using the standard concentration of insulin [4]: inactive
activity in the FFC assay in the presence of a stimulating concentration of insulin [4]: antagonists

B6: RP30-IGF-12-D112: dimer peptide (Site 1-Site 1) (protein)
chain: ADYKDSFYSCLESLVNGGAERSDGQWEGCRGGSGGSGGSGGSCWARPCGDAANFYDWFVQQASKKAAAGAPVPYPDPLEPRPG
IGF-1R agonist activity, proliferation of MCF-7 and MiaPaCa cells, in words (MCF-7 cells): IGF-1R agonist activity

Kinase Pot. (nM) [2]: Inactive
B7: MADYKDDDDKGSLDESFYDWFERQLGKKGGSGGSGGSGGSWLDQEWAWVQCEVYGRGCPSAAA(ETAG)PG (protein)
chain: MADYKDDDDKGSLDESFYDWFERQLGKKGGSGGSGGSGGSWLDQEWAWVQCEVYGRGCPSAAAGAPVPYPDPLEPRPG
modifications: E-tag
IR / HIR binding affinity compared with monomer or homodimer peptides, in words [3]: substantially higher (several orders of magnitude) affinity
activity in the free fat cell (FFC) assay / at IR, in words [4]: active as specific insulin receptor antagonists
FFC Pot., agonist or antagonist [4]: N
activity in the FFC assay using the standard concentration of insulin [4]: inactive
activity in the FFC assay in the presence of a stimulating concentration of insulin [4]: antagonists
